Source: patent US20240261333A1, “NOVEL TARGETS FOR ENHANCING ANTI-TUMOR IMMUNITY” (THE BROAD INSTITUTE, INC., priority 2021, published 2024)

Experiments:
YWHAZ = YWHAZ (UniProt P63104); assay: co-IP with anti-FLAG, mass spectrometry; C-FLAG B3GNT2
RPL21 = RPL21 (UniProt P46778); assay: as above
EEF1A1 = EEF1A1 (UniProt P68104); assay: as above
UBA52 = UBA52 (UniProt P62987); assay: as above
RPL31 = RPL31 (UniProt P62899); assay: as above
HNRNPA1 = HNRNPA1 (UniProt P09651); assay: as above
LTF = LTF (UniProt P02788); assay: as above
RCC2 = RCC2 (UniProt Q9P258); assay: as above
Sequence of RCC2 (Q9P258 whole entry): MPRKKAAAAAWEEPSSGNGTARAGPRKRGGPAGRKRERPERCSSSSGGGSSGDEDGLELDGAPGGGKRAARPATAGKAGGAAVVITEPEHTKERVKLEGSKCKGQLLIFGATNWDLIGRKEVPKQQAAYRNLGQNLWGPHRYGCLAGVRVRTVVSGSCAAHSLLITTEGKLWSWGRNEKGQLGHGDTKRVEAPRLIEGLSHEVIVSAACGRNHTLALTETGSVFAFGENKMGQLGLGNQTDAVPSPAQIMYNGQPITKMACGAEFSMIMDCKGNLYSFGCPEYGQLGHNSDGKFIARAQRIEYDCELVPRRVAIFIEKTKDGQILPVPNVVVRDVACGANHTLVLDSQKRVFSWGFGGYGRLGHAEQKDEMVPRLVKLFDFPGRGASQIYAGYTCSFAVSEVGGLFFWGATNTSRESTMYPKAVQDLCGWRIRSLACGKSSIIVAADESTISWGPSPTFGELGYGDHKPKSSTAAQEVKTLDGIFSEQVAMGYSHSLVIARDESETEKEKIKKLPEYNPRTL

SSR1 = SSR1 (UniProt P43307); assay: as above
ATXN2L = ATXN2L (UniProt Q8WWM7); assay: as above
RPL36A = RPL36A (UniProt P83881); assay: as above
RPS15A = RPS15A (UniProt P62244); assay: as above
RPN1 = RPN1 (UniProt P04843); assay: as above
GALNT2 (human) = GALNT2 (human) (UniProt Q10471); assay: co-IP with control IgG, mass spectrometry; lysate of cells with C-FLAG B3GNT2
Sequence of GALNT2 (human) (Q10471 whole entry): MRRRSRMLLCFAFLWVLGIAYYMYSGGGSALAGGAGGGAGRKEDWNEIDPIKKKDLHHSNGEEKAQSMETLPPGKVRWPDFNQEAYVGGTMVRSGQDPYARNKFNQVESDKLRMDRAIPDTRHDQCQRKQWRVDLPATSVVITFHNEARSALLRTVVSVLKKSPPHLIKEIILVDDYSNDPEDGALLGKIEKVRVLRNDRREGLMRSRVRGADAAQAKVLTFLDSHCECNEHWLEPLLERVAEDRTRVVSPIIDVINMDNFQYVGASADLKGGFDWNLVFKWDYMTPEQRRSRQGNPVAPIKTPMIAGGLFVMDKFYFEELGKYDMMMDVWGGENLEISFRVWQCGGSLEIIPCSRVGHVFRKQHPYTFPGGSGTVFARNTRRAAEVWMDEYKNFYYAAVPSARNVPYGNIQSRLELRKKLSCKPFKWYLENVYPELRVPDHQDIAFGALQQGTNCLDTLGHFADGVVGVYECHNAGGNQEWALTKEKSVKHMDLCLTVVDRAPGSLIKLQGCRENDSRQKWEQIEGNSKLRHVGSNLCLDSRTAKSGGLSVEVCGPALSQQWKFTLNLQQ

PJA2 (human) = PJA2 (human) (UniProt O43164); assay: as above
Sequence of PJA2 (human) (O43164 2-708 limits assumed): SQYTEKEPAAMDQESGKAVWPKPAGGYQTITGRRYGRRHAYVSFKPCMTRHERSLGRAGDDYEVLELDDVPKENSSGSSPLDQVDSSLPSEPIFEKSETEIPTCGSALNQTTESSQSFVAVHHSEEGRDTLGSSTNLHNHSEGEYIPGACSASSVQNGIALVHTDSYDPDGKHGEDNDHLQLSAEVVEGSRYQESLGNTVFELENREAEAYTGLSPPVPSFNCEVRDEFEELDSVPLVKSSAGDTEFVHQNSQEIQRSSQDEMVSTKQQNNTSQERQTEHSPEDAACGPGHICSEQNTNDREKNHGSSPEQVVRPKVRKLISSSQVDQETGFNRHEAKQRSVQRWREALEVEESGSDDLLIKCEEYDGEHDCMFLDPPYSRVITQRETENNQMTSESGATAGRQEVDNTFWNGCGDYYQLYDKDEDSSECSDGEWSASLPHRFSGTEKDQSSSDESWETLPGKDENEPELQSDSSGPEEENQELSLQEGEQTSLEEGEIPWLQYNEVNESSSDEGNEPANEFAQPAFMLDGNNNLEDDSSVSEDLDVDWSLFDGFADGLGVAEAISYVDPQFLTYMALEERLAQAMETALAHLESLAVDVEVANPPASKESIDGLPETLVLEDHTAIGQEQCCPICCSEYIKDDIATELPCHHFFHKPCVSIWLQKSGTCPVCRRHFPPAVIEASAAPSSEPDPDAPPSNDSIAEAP

PSMD4 (human) = PSMD4 (human) (UniProt P55036); assay: as above
IPO13 (human) = IPO13 (human) (UniProt O94829); assay: as above
CCT7 (human) = CCT7 (human) (UniProt Q99832); assay: as above
Sequence of CCT7 (human) (Q99832 45-543 limits assumed): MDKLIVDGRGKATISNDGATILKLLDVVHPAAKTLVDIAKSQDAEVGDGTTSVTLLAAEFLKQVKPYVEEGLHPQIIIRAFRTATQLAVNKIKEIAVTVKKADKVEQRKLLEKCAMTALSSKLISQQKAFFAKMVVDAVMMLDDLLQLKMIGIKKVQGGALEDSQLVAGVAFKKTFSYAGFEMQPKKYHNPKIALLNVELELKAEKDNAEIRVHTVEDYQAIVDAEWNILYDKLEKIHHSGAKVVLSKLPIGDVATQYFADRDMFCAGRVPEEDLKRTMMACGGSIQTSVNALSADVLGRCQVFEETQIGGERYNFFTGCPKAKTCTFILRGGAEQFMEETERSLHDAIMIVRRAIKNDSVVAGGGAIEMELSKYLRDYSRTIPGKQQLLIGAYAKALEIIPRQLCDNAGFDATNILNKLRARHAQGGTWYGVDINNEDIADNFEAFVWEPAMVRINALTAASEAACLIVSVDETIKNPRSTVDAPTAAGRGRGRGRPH

SDF4 (human) = SDF4 (human) (UniProt Q9BRK5); assay: as above
HSPD1 (human) = HSPD1 (human) (UniProt P10809); assay: as above
TOR1AIP2 (human) = TOR1AIP2 (human) (UniProt Q8NFQ8); assay: as above
SEL1L (human) = SEL1L (human) (UniProt Q9UBV2); assay: as above
SLC27A4 (human) = SLC27A4 (human) (UniProt Q6P1M0); assay: as above
GAPDH (human) = GAPDH (human) (UniProt P04406); assay: as above
ZC3HAV1 (human) = ZC3HAV1 (human) (UniProt Q7Z2W4); assay: as above
EIF4A1 (human) = EIF4A1 (human) (UniProt P60842); assay: as above
RARS (human) = RARS (human) (UniProt P54136); assay: as above
Sequence of RARS (human) (P54136 whole entry): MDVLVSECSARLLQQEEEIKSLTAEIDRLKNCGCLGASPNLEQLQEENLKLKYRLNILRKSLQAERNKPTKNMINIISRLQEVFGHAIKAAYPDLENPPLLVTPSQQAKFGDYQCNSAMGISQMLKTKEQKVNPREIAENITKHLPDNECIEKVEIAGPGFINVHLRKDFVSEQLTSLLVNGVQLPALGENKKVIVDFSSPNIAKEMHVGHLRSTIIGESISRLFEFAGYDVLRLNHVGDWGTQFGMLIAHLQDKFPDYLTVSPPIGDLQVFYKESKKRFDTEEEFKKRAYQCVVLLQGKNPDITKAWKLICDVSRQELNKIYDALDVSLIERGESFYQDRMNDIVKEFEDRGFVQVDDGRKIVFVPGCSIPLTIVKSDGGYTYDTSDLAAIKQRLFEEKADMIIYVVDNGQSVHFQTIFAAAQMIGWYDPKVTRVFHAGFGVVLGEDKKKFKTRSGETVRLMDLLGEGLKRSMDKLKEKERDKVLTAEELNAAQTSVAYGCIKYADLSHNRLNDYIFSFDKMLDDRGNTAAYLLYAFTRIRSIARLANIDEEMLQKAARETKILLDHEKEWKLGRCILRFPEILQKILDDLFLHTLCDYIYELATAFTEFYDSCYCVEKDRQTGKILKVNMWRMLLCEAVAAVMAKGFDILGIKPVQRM

ILF3 (human) = ILF3 (human) (UniProt Q12906); assay: as above
CTHRC1 (human) = CTHRC1 (human) (UniProt Q96CG8); assay: as above
Sequence of CTHRC1 (human) (Q96CG8 other isoform, or with tags, fused parts or gaps limits assumed): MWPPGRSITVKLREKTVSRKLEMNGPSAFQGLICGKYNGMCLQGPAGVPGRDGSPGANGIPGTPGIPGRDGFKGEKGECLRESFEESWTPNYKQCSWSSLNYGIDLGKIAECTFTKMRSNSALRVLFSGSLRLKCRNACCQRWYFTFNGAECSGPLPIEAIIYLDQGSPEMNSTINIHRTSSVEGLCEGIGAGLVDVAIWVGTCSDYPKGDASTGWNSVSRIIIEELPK

GANAB (human) = GANAB (human) (UniProt Q14697); assay: as above
Sequence of GANAB (human) (Q14697 29-944 limits assumed): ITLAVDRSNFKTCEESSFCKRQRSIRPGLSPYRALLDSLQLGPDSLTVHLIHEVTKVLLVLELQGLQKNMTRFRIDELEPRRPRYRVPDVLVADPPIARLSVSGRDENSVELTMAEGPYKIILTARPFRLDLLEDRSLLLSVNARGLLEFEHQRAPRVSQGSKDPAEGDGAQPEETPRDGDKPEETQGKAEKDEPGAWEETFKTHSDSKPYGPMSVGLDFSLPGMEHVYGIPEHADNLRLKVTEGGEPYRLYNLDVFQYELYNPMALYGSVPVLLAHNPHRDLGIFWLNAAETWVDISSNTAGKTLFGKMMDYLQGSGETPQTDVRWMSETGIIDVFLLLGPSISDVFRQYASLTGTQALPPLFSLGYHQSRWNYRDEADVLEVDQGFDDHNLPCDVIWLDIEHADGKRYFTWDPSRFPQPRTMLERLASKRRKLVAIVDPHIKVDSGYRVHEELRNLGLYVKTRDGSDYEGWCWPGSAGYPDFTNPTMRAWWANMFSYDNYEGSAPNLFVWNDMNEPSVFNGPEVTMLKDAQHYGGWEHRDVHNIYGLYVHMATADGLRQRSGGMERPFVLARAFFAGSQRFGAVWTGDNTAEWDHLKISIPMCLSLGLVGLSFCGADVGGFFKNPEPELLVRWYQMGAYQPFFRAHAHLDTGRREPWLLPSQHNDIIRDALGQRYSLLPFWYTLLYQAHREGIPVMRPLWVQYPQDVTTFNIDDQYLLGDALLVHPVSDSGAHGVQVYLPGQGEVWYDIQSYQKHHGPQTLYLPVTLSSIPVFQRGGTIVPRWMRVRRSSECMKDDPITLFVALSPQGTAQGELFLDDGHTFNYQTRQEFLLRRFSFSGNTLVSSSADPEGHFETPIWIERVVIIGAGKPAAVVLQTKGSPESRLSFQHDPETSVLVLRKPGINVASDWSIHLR

CCT2 (human) = CCT2 (human) (UniProt P78371); assay: as above
SPRR1A (human) = SPRR1A (human) (UniProt P35321); assay: as above
Sequence of SPRR1A (human) (P35321 whole entry): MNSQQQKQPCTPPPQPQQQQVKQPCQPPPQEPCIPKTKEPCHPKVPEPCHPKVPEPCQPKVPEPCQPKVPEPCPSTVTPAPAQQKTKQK

RPS4X (human) = RPS4X (human) (UniProt P62701); assay: as above
PIGR (human) = PIGR (human) (UniProt P01833); assay: as above
STAU2 (human) = STAU2 (human) (UniProt Q9NUL3); assay: as above
DNAJB11 (human) = DNAJB11 (human) (UniProt Q9UBS4); assay: as above
Sequence of DNAJB11 (human) (Q9UBS4 23-358 limits assumed): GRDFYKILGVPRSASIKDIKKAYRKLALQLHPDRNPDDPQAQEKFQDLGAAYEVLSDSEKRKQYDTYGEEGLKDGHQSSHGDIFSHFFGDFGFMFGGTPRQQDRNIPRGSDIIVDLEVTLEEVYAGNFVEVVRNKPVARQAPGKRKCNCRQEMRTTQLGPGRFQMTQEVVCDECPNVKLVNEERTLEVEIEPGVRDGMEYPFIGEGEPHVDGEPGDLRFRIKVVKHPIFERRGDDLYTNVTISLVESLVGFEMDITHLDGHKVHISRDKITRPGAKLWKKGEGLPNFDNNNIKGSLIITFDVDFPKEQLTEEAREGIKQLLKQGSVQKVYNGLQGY

CD70 (human) = CD70 (human) (UniProt P32970); assay: as above
CASC3 (human) = CASC3 (human) (UniProt O15234); assay: co-IP with mouse anti-FLAG from lysate of cells overexpressing N-FLAG B3GNT2, then mass spectrometry

Sequence of EEF1A1 (P68104 2-462 limits assumed): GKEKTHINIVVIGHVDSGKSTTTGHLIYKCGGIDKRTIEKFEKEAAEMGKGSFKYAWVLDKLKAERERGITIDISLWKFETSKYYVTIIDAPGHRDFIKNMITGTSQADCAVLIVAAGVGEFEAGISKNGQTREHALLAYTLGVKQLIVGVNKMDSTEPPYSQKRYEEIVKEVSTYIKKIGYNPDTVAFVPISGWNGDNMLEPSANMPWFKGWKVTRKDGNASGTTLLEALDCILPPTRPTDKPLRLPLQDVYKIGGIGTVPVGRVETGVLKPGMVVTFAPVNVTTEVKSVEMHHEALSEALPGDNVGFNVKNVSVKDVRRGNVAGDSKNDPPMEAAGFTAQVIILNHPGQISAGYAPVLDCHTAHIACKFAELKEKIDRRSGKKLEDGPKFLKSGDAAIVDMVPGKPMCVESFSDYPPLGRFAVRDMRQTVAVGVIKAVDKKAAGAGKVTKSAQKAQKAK

Substance: C-terminal FLAG tagged B3GNT2 (from UniProt Q9NY97 1-397) (enzyme)
- co-IP mass spectrometry count (YWHAZ): 4
- co-IP mass spectrometry count (RPL21): 11
- co-IP mass spectrometry count (EEF1A1): 11
- co-IP mass spectrometry count (UBA52): 20
- co-IP mass spectrometry count (RPL31): 6
- co-IP mass spectrometry count (HNRNPA1): 9
- co-IP mass spectrometry count (LTF): 7
- co-IP mass spectrometry count (RCC2): 6
- co-IP mass spectrometry count (SSR1): 4
- co-IP mass spectrometry count (ATXN2L): 5
- co-IP mass spectrometry count (RPL36A): 11
- co-IP mass spectrometry count (RPS15A): 6
- co-IP mass spectrometry count (RPN1): 7

Substance: IgG control (Millipore Sigma 12-371) (antibody)
- co-IP mass spectrometry count (GALNT2 (human)): 0
- co-IP mass spectrometry count (PJA2 (human)): 0
- co-IP mass spectrometry count (PSMD4 (human)): 0
- co-IP mass spectrometry count (IPO13 (human)): 0
- co-IP mass spectrometry count (CCT7 (human)): 0
- co-IP mass spectrometry count (SDF4 (human)): 0
- co-IP mass spectrometry count (HSPD1 (human)): 2
- co-IP mass spectrometry count (TOR1AIP2 (human)): 0
- co-IP mass spectrometry count (SEL1L (human)): 0
- co-IP mass spectrometry count (SLC27A4 (human)): 0
- co-IP mass spectrometry count (GAPDH (human)): 6
- co-IP mass spectrometry count (ZC3HAV1 (human)): 0
- co-IP mass spectrometry count (EIF4A1 (human)): 0
- co-IP mass spectrometry count (RARS (human)): 0
- co-IP mass spectrometry count (ILF3 (human)): 0
- co-IP mass spectrometry count (CTHRC1 (human)): 0
- co-IP mass spectrometry count (GANAB (human)): 0
- co-IP mass spectrometry count (CCT2 (human)): 0
- co-IP mass spectrometry count (SPRR1A (human)): 0
- co-IP mass spectrometry count (RPS4X (human)): 7
- co-IP mass spectrometry count (PIGR (human)): 0
- co-IP mass spectrometry count (STAU2 (human)): 0
- co-IP mass spectrometry count (DNAJB11 (human)): 0
- co-IP mass spectrometry count (CD70 (human)): 0

Substance: N-terminal FLAG tagged B3GNT2 (from UniProt Q9NY97 1-397) (enzyme)
- co-IP mass spectrometry count (N-term FLAG) (CASC3 (human)): 3
